Data from the nanobody polyreactivity screen of Harvey et al. (2022).

assay: yeast display, Sf9 membrane polyspecificity reagent, FACS + sequencing; frameworks hold sequencing errors
Method in brief: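 Nanobodies from a synthetic yeast display library (Saccharomyces cerevisiae BJ5465), induced 36–48 hours with galactose, were stained 1 hour at 4 °C with 10% biotinylated, detergent-solubilized Sf9 membrane reagent, enriched on streptavidin microbeads, then FACS-sorted. Anti-HA (expression) and streptavidin (reagent binding) fluorescence set low and high (top ~1%) gates. Polyreactivity labels come from the gate of origin. Genes were colony-PCR amplified, MiSeq 2 × 250 sequenced and filtered by CDR length.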

Row | Sequence | polyreactivity (PSR sort gate)
1 | QVQLVESGGGLVQAGGSLRLICAASGFIFWRYAMGWYRQAPGKERELVAAISRTSTSTYYADSVKGRFTISRDNAKNSVYLQMNSLKPEDTAVYYCAATFSTFYGYGYWGQGSQVTVSS | high polyreactivity
2 | QVQLVESGGGLVQAGGSLRLSCAASGYTFIYYAMGWYRQAPGKERELVATISIDGSTNYADSVKGRFTISRDNAKYSVYLQMNSLKREDTAVYYCNRERYEDYDYWGQGTQVTVSS | high polyreactivity
3 | QVQLVESGAGLVQAGGSLRLICAASGRIFDRYTMGRYRQAPGKERELVAAITQRGTSTYYADSVKGRFTLSRDTAKNTVYLQMNSLKPEDTAGYYCAATALFSGLNKRYYWGQGTQLTVSS | high polyreactivity
4 | QVQLVESGGGLVQAGGSLRLSSAASGITFAYYAMGWYRLAPGTVRELVAAISSTGSSTYYADSVKGRFTISRDNAKNTVYLQMNSLKPEDTAVYYCAARVHYRGIVRYDYWGQGTQVTVSS | high polyreactivity
5 | QVQLVESGGCIVQAGGSLRLSSPASGRNFTRYGKGWDRQAPRKERELVAAISKSTGNTYYADCVKGRFTISRDFAKNTVYLQMNSLKPEDTAVYYCAASKNKRPPYDYWGQGTQVNVSS | high polyreactivity
6 | QVQLVESGGGLVQAGGSLRLSCAASGSTFTWYAMGWYRQAPGKERELVAAIRWSGGNTYYADSVKGRFTISRDTAKNTVYLHMNSLKPEDTGVYYCAAVSRTYSLQMYYWGQGTQVTVSS | high polyreactivity
7 | QQLQESGGGLVQAGGSLRLSCAASGSISGSVLMGWYRQAPGKEREFVASISLGGNTNYADSVKGRFTISRENAKNTVYLQMNSLKPEVAAVYYCAAYISLFETHPYWGQGTQVTVSS | high polyreactivity
8 | QVQLVESGGGLVQAGGSLRLSCAASGFTFSKYAMGWYRQAPVKERELVATITRGGNTYYADSVKGRFTISRDNAKNTVYLQMNSLKPEDTAVYYCNTGRRNRLYDYDYWGQVTQVTVSS | high polyreactivity
9 | QVQLVESGGGLVQAGGSLRLSCAASGRIFADNAMGWYRQAPGKERELVADITYSGGSTYYADSVKGRFTISRDSAKNTVYLQMNSLKPEDTAVYYCAKQGVDYWGQGTQVTVSS | low polyreactivity
10 | QVQLVESGGGLVHAGGSLRLSCAASGSIFYRNVMGWYRQAPGKERELVAAISRSGGSTYYADSVKGRFTISRDNAKNTVYLQMNSLKPEDTAVYYCAVRYSPFYYWGQGTQVTVSS | high polyreactivity
11 | QVQLVESGGGLVQAGGSLRLSCAASGSIFPYYAMGWYRQAPGKERELVATITYRGGSTNYADSVKGRFTISRDNAKNTVYLQMNSLNPEDTAVYYCAAYGYVLASPYPYSFVKLGYWGQGTQVTVSS | low polyreactivity
12 | QVQLVESGGGLVQAGGSLRLSCAASGTNQGVNAMGWYRQAPGKEREFDAAITGRGGNTYYADSVKGRYTISRDNAKNTVYLQLNSLKPDDTAVYYCAARVKDTRYQSMLDYFYWGQGTEVTVSS | high polyreactivity
13 | QVQLEDSGGGLVQAGGSLRLSCAASGFIFLPNAMGWYRQAPGKERELVAAISTSDGSTYYADSVKGRFTISRDNAKNTVYLQMNSLKPEDTAVYYCAASYQFYRKYAYDYWGQGTQVTVSS | low polyreactivity
14 | QVQLVESGGGLVQAGGSLRLSCAASGRTIRGYTMGWYRQAPGKERELVATITKRGGSTTYADSVKGRFTISRDNAKNTVYLQMNSLKPEDTAVYYCNKDTITSTWTPYTSWFGYWGQGTQVTVSS | high polyreactivity
15 | QVQLVESAGGLVQAGGSLRLSCAASGRISAYAMGWYRQAPGKERELVAAISSRGGRTYYADSVKGRFTISRDNAKNTVYLQMNSLKPDDTAVYYCNALRTWEFDHWGQGTQVTVSS | high polyreactivity
16 | QVQLVESGGGLVQEGGSLRLSCAASGSTSRKYTMGWYRQAPGKERELVATISWSGGSTNYADSVKGRFTISRDNAKNNVYLQMNSLIPEDTAVYYCNAYVSPRYRGTRYYYWGQVTQVTVSS | high polyreactivity
17 | QVQLVESGGGLVQAGGSLRLSCAASGSIFGRNAMGWYRQAPGKERELVAAITGSTYYADSVKGRFTISRDNAKNTVYLQMNSLKPEDTAVYYCNADYDVGWTYDTEYNYWGQGTQVTVSS | low polyreactivity
18 | QVQLVESGGGLVQAGGSLLLSCAASGSTLDPNVMGWYRPAPGKERELVAAITSGGSTYYADSVKGRFTISRDNAKNTVYLQMNSLKPEDTAVYYCNKDKGWLAHSRIWLWYDYWGQGTQVTVSS | low polyreactivity
19 | QVQLVESGGGLVQAGGSIRLSCAASGFTIFLNAMGWYRQAPGKERELVAAITVSGSSTYYADSVKGRFTISRDNAKNTVYLQMNSLKPEETAVYYCNAEIYSPYYTYDYWGQGTQVTVSS | low polyreactivity
20 | QVQLVESGGGLVQAGGSLRLSCAASGSIFNWYAMGWSRQAPGKERELVAAISEDGGSTYYADSVKGRFTISRDNAKNTVYLQMNTLKPEDTAVYYCATPVASVTGYDYWGQGTQVTVSS | low polyreactivity
21 | QVQLVESGGGLVQAGGSLRLSCAASGIIFDFYTMGWYRQAPGKERELVAAINSSGGSTYYADSVKGRFTISRDNAMNTVYLHMNSLKPADTAVYYCNAEYLFFWGQYDYWGQGTQVTVSS | high polyreactivity
22 | QVQLVESAGGLVQAGGSLRLSCAASGSIFPAYAMGWYRQAPGKERELVASITTGDRTYYADSVKGRFTISRDNAKNTVYLQMNSLKPEDTAVYYCAALYYVHYYSAHYPTLSRHEYWGPGTQVTVSS | high polyreactivity

Row | Sequence | polyreactivity (PSR sort gate)
23 | QVQLQESGGGLVQAGGILRLSCAACGNIFPSAVMGWYRQALAKEREFVATINSGSNTYYADSVKGRFTISRDNAKNTVYLQMNSLKLEDTAVYYCAAYFKLQAWHTYWGQGTQVTVSS | low polyreactivity
24 | QVHLVESGGGLVQAGGSLRLSCAASGSTFVRNVMGWYRQAPGKERELVAAITRSGDTTYYADSVKGRFTISRDNAKNTVYLQMNSLKPEDTAVYHCAKRTFVRRGSIYPIDDYWGQGTQVTVSS | low polyreactivity
25 | QVQLVESGGGLVQAGGRLRLSCAASGGTFYTYFMGWYRQAPGKERELVAAISQSGGRTYYADSVKGRFTISRDNAKNTVYLQMISLKPEDTAVYYCAAPDESYSFWRLDGLDYWGQGTQVTVSS | high polyreactivity
26 | QVQLVESGGGLVQAGGSLRLSCAASGIIFFYYGMGWYIQAPGKERELVARISSGGSTNYADSVKGRFTISRDNAKITVYLQMNSLKQEDTAVYYCAARISTRYGYWGQGTQVTVSS | low polyreactivity
27 | QVQLVESGGGLVQAGGSLRLSCAASGSIIRWYTMAWYRQAPGKESEFVAAITRSGGSTYYADSVKVRFTISRDNAKNTVYLQMNSLKPEDTAVYYCARYANYDKRYDYWGQGTQVTVSS | high polyreactivity
28 | QVQLVESGGGLVQAGGSLRLSCAASGITLGAYAMGWYRQAPGKERELVARIRIGGSTYYADSVKGRFTISRDNAKNTVYLQMNSLKPEDTAVYYCNRDFWYGVATGREFYLYDYWGQGTQVTVSS | low polyreactivity
29 | QVQLVESGGGLVQAGGSLRLSCAASGSTFTRYAMGSYRQAPGKERELVAAISRTGGSRTYYADSVKGRFTISRDNAKNTVYLQMNSLNPEDTAVYYCAKGYWRYLGFLYFFPARDYWGQGTQVTVSS | high polyreactivity
30 | QVQLVESGGGLVQAGGSLRLSCAASGRILFGYAMGWYRQAPGKERELVADITSTGSTNYADSVKGRFTISRDNAKNSVYLQMNSLKPEDTAVYYCNARRESYYQRYRVDYWGQGTQVTVSS | low polyreactivity
31 | QVQLVESGGGLVQAGGSLRLSCAASGRTFRYYAMGWYRQAPGKERELVADISWSGGRTTYADSVKGRFTISRDNAKNTVYLQMNSLKPEDTAVYYCAKVLYYPSNDYWGQGSQVTVSS | high polyreactivity
32 | QVQLVESGGGLVQAGGSLRLSCAASGRIFRDNAMGGYRQAPGKERELVASISSRTGRTYYADSVKGRFTISRDNAKNTVYLQMNSLKPEDTAVYYCAAAFIYRGPGSLKFDYWGQGTQVTVSS | low polyreactivity
33 | QVQLVESGGGLVQAGGSLSLSCAASGSTLRQYAMGWYRQAPGKERELVAGISYRGGRTYYADSVKVRFTISRDNAKNTVYLQMNSLKPEDTAVYYCNALRHYGDISVDCDDYWGQGTQVTVSS | high polyreactivity
34 | QVQLVESGGGLVQAGGSLRLSCAASGRIFLGNVMGWYRQAPGKERELVAAISKSGGTTYYADSVKGRFTISRDNAKNTVYLQMNSLKPEDTAVYYCAAYGSWRTYHYYYWGQGTQVTVSS | high polyreactivity
35 | QVQLVESGGGLVQAGGRLRLSCAASGIIFASNAMGWYCQAPGKERELVAAISRSGGRTYYADSVKGRFTISRDNAKNTVYLQMNSLKPEDTAVYYCAILARSGTLPYYYWGQGTQVNVSS | high polyreactivity
36 | QVQLVESGGGLVQAGGSLRLSCAASGSIFDYNTMGWYRQAPGKVRELVAVISGTGGSTYYADSVKGRFTISRVNAKNTVYVQLNSMKPEDTAVYYCAAEGYYSNYHYWGQGTQVTVSS | low polyreactivity
37 | QVQLVESGGGLVQAGGSLRLSCAASGFTFVNYAMGWYRQAPGKERELVAAIRRSGSRTYYADSVKGRFTISRDNAKNTVYLQINSLKPEDTAVYYCGAVCYRLYGYWGQGTQVTVSS | low polyreactivity
38 | QDQRVESGGGLVQAGGSLRLSCAASGRTISVYAMGWYRQAPGKERELVAAIRTSGGITYYADSVKGRFTISRDNAKNTVYLQMNSLKPEDTAVYYCAAETFRHDSYTRYYYWGQGTQVTVSS | high polyreactivity
39 | QVHLVESGGGLVQAGGSLRLSCAASASTYGSNSMGWYRQAPGKERELVAAITLPGASTYYADSVKGRFTISRDNAKNTVSLEMNSLKGEDTSVYSCAAQIHPRRDYSAFDYWGPGTQVTVSS | low polyreactivity
40 | QDQLVESGGGLVQAGGRLRLSCAASGLMFYYYAMGWYIQAPGKEREFVAAISRSGGITRYADSVKGRFTISRDNAKNTVYLQMNRLKPEDTAVYYCAAAVGSVRYDYWGQGTQVTVSS | high polyreactivity
41 | QVQIVESGGGLVQAAGSLRLSCAASGSTLAPYAMGWYRQAPGKERELVASINWGGTTTYYADSVKGRFTNSRDNAKNKVYLQMNSLKPEDTAVYYCAALGLSWGRSGYYYEYYYWGQGTQVTVSS | high polyreactivity
42 | QVQLVESGGGLVQGGGSLRLSCAASGSIFPGNAMGCYRQAPGKERELLAVIDFSGASTYYADSLKGRFTISRDNAKNTVYLQMKSLKPEATAVYWGQGTQVTVSS | low polyreactivity
43 | QVQLVESGGGLVQAGGSLRLSCAASGSTFGYYAMGWYRQAPGKERELVAAISKRGGSTYYADSVKGRFTISRDNAKNTVYLQMNSLKPEDTAVYYCAAAPYKYPGDYWGQGTQVTVSS | high polyreactivity
